Test system: CD4 T cell clone LB 1555 CD4 436/B6.37
Assay: Recognition of retrovirally transduced cells by CD4 T cell clone (IFN-γ ELISA)
Type: cell-based, human
Conditions: overnight coculture
Method: The EBV transformed cells were infected by resuspending the cells in an infection cocktail and centrifugation. Target cells were resuspended in 60 mm tissue culture plates (Falcon) at a density of 1.0×10^6 cells in 4 ml infection cocktail. The plates were centrifuged for 2 hours at 32° C. and 1200 rcf in an IEC centrifuge, rotor type 228. For each plate to be transduced, 4 ml of […] was prepared by diluting the viral supernatant 1:2 in EBV cell growth medium and adding protamine sulfate to a final concentration of 6 μg/ml. Centrifugation was followed by another 2 hours of incubation in a humidified incubator at 37° C. and cells were transferred to 4 ml of target cell growth medium. This transduction cycle was carried out immediately after plating the cells and was repeated at 24 and 48 hours. […]
5000 T cells of LB705 CTL 434/1 or 3000 T cells of clone LB1555 CD4 436/B6.37 were washed and cultured overnight in the presence of 5000 retrovirally transduced EBV B cells of MZ2-EBV, or LG2-EBV B cells, in 100 μl ID medium containing 10% HS, AAG and 50 U/ml rh IL-2 in a round-bottom 96 wells plate. […] After three washings the plates were incubated with 50 μl per well horseradish peroxidase conjugated streptavidin (1:3000 in PBS/0.5% BSA) for 30 min at RT, which was detected by TMB substrate, and H2SO4 to stop the reaction. The optical density was read at 450 nm. […]

B1: MAGE-A3: MAGE-A3 protein; recombinant His-MAGE-A3 produced in E. coli, or expressed from MFG MAGE-A3 retrovirus in Example 6 (protein, listed as Homo sapiens)
chain: MPLEQRSQHCKPEEGLEARGEALGLVGAQAPATEEQEAASSSSTLVEVTLGEVPAAESPDPPQSPQGASSLPTTMNYPLWSQSYEDSSNQEEEGPSTFPDLESEFQAALSRKVAELVHFLLLKYRAREPVTKAEMLGSVVGNWQYFFPVIFSKASSSLQLVFGIELMEVDPIGHLYIFATCLGLSYDGLLGDNQIMPKAGLLIIVLAIIAREGDCAPEEKIWEELSVLEVFEGREDSILGDPKKLLTQHFVQENYLEYRQVPGSDPACYEFLWGPRALVETSYVKVLHHMVKISGGPHISYPPLHEWVLREGEE
modifications: His tag
  recognition of transduced MZ2 EBV by CD4 clone 436/B6.37 (IFN-γ release): not recognized

— patent US6716809B1, “Mage-A3 peptides presented by HLA class molecules” (priority 1997, dated 2004)
